# Results: patent publication WO2024071112A1 (dated 2024)
# B1: VKc4+VHc1 (His-tagged VKc4 domain peptide combined with His-tagged VHc1 domain peptide) (other)
# VL: RSDILMTQSPSSMSVSLGDTVSITCHASQGISSNIGWLQQKPGKSFKGLIYHGTNLEDGVPSRFSGSGSGADYSLTITSLESEDFADYYCVQYAQFPWTFGGGTKLEIKDIPWQGLNDIFEAQKIEWHGSHHHHHH
# VH: RSEVQLQQSGAELVKPGASVKLSCTASGFNIKDYYMHWVKQRTEQGLEWIGRIDPEDGETKYAPKFQGKATITADTSSNTAYLQLSSLTSEDTAVYYCAPLLGREDYWGQGTTLTVSSDIPWQGLNDIFEAQKIEWHGSHHHHHH
# notes: Two separate His-tagged mouse variable domain peptides made in E. coli (crude lysis supernatant), not covalently linked; in the ELISA they are bridged by polyclonal rabbit anti-His tag IgG; also called Kc4Hc1
# Target: T1, human plasminogen (human, UniProt P00747 20-810, limits assumed)
# T1 construct: also called Plg
# T1 sequence (P00747 20-810 limits assumed): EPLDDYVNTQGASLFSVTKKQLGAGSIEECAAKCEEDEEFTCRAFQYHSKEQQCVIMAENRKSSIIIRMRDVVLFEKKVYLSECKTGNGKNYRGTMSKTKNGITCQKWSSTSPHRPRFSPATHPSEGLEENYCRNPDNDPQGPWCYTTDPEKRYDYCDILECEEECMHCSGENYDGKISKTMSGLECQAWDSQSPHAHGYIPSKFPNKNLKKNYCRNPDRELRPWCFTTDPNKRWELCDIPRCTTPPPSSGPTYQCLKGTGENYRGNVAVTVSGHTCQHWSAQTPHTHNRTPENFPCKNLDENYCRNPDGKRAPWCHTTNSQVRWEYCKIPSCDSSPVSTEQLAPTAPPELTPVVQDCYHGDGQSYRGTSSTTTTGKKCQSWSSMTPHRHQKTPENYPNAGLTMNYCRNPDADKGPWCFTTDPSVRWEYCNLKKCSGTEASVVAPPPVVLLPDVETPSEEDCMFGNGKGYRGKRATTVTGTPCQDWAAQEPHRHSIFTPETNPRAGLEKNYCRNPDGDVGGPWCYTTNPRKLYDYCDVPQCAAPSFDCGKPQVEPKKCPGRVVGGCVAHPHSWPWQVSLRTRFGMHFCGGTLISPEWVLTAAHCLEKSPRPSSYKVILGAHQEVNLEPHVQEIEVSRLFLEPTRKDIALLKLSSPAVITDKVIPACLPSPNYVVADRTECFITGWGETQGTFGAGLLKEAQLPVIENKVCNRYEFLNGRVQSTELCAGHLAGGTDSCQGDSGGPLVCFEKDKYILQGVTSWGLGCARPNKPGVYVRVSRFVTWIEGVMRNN
# Assay: ELISA, plate-coated human plasminogen, His-tagged VK and VH peptides bridged and detected by rabbit anti-His tag IgG and HRP anti-rabbit IgG, A450
binder,measurement,value
B1,binding result,binds
